Where two headings read alike, the source gives them in different places.
Assays:
Test in all cases: Heat/Cool phage ELISA: phage-displayed VH, 80 C 10 min then 4 C 10 min, captured on coated protein A; signal as % of untreated sample
protein A [1] = molecular target: T1, protein A (UniProt P38507 37-477)
T1 construct: also called Protein A superantigen
Protocol: (§1) The aggregation-resistance of clones was analyzed by measuring retention of signal after heat incubation in a phage ELISA format (McCafferty et al., 1990; Jespers et al., 2004). Wells of a Nunc Maxisorp Immuno-plate were coated overnight with protein A at a concentration of about 5 μg/ml in phosphate-buffered saline (PBS). The plate was washed once with PBS and blocked with about 4% (w/v) milk powder diluted in PBS (MPBS). Single colonies were picked from agar plates and grown overnight in 2×TY medium (containing about 16 g/L tryptone; about 10 g/L yeast extract; about 5 g/L NaCl, pH 7.0) supplemented with about 15 μg/ml tetracycline shaking at about 30° C. Cells were removed by centrifugation and phages were biotinylated directly in the culture supernatant by adding biotin-PEO₄-N-hydroxysuccinimide (Pierce; about 50 μM final concentration). For heat selection, supernatant was first incubated at about 80° C. for about 10 min and then at about 4° C. for about 10 min. Supernatant was added to the blocked ELISA wells. After three washes with PBS, bound phage particles were detected using an Extravidin-HRP conjugate (Sigma) and 3,3′,5,5′-tetramethylbenzidine (TMB) substrate. Absorbance was calculated by subtracting measurements at 450 and 650 nm.
To identify residues in CDR2 that confer aggregation-resistance on a VH containing protein aspartic acid (D) was substituted for surface-exposed residues within the putative CDR2 of DP47 VH with aspartic acid (positions 50, 52, 52a, 53, 54).

protein A [2] = molecular target: T1, protein A; remark: listed apart in the source
Protocol: as §1
Single amino acid changes in the CDR1 region of the DP47 VH domain, and combinations thereof, were constructed and tested for aggregation-resistance, as detailed above (see the Materials and Methods section). […] Correctly folded VH were captured by protein A ELISA and the absorbance signal of the treated sample was calculated as a percentage of the untreated sample.

protein A [3] = molecular target: T1, protein A; remark: listed apart in the source
Protocol: as §1
To identify additional residues in CDR1 that confer aggregation-resistance on VH, surface-exposed residues of DP47 between positions 26 to 35 (numbering according to the Kabat numbering system) were substituted for aspartic acid (D) or glutamic acid (E). Framework residues at positions 39 and 40 were also substituted for aspartic acid (D) or glutamic acid (E). […] Correctly folded VH were captured by protein A ELISA and the absorbance signal of the treated sample was calculated as a percentage of the untreated sample.

Row | Binder | Retained binding to protein A (%) (protein A [1]) | Retained binding to protein A (protein A [2]) [%] | Retained binding to protein A (%) (protein A [3])
1 | DP47 VH A50D (other, name in Kabat numbering) VH: QVQLLESGGGLVQPGGSLRLSCAASGFTFSSYAMSWVRQAPGKGLEWVSDISGSGGSTYYADSVKGRFTISRDNSKNTLYLQMNSLRAEDTAVYYCAKSYGAFDYWGQGTLVTVSS | 2.9 | – | –
2 | DP47 VH G54D (other, name in Kabat numbering) VH: QVQLLESGGGLVQPGGSLRLSCAASGFTFSSYAMSWVRQAPGKGLEWVSAISGSDGSTYYADSVKGRFTISRDNSKNTLYLQMNSLRAEDTAVYYCAKSYGAFDYWGQGTLVTVSS | 1.3 | – | –
3 | DP47 VH S52D (other, name in Kabat numbering) VH: QVQLLESGGGLVQPGGSLRLSCAASGFTFSSYAMSWVRQAPGKGLEWVSAIDGSGGSTYYADSVKGRFTISRDNSKNTLYLQMNSLRAEDTAVYYCAKSYGAFDYWGQGTLVTVSS | 3.9 | – | –
4 | DP47 VH S53D (other, name in Kabat numbering) VH: QVQLLESGGGLVQPGGSLRLSCAASGFTFSSYAMSWVRQAPGKGLEWVSAISGDGGSTYYADSVKGRFTISRDNSKNTLYLQMNSLRAEDTAVYYCAKSYGAFDYWGQGTLVTVSS | 3.8 | – | –
5 | DP47 VH S31D (other, name in Kabat numbering) VH: QVQLLESGGGLVQPGGSLRLSCAASGFTFSDYAMSWVRQAPGKGLEWVSAISGSGGSTYYADSVKGRFTISRDNSKNTLYLQMNSLRAEDTAVYYCAKSYGAFDYWGQGTLVTVSS | – | 31 | 21.3
6 | DP47 VH Y32E (other, name in Kabat numbering) VH: QVQLLESGGGLVQPGGSLRLSCAASGFTFSSEAMSWVRQAPGKGLEWVSAISGSGGSTYYADSVKGRFTISRDNSKNTLYLQMNSLRAEDTAVYYCAKSYGAFDYWGQGTLVTVSS | – | 41 | 24.8
